Ends that are not written are not given here.
Experiments:
hBMP-2 (PeproTech) = hBMP-2 (PeproTech) (human, UniProt P12643 283-396); experiment: cell-based or functional assay
endogenous BMP-2 (rat) = biological target: T1, endogenous BMP-2 (rat) (rat, UniProt P49001 280-393, limits assumed); experiment: immunofluorescence against BMP-2 of PCL films implanted subcutaneously in rats for 7 days
T1 construct: also called BMP-2 released during inflammation
Description: Both native and functionalized PCL films were subcutaneously implanted in the back of rats, facing the fascia. Each animal, with a total of three animals per time point, was implanted with both native and functionalized film. At day 3 and day 7 after implantation, samples were harvested and used for immunofluorescence against BMP-2 and for histology. Only the samples from day 7 were used for immunofluorescence against BMP-2.

hTGFB1 (Peprotech) = hTGFB1 (Peprotech) (human, UniProt P01137 279-390); experiment: cell-based or functional assay
Chain of hTGFB1 (Peprotech) (P01137 279-390 limits assumed): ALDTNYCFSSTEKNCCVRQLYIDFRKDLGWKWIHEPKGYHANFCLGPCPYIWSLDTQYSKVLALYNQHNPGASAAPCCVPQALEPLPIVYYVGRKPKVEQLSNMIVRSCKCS

hVEGF (PeproTech) [1] = biological target: T2, hVEGF (PeproTech) (human, UniProt P15692-4 27-191, limits assumed); experiment: immunofluorescence against hVEGF on peptide-functionalized PCL films, 1 µg/mL hVEGF
T2 construct: Commercial growth factor; also called ihVEGF; shVEGF
T2 sequence (P15692 other isoform, or with tags, fused parts or gaps limits assumed): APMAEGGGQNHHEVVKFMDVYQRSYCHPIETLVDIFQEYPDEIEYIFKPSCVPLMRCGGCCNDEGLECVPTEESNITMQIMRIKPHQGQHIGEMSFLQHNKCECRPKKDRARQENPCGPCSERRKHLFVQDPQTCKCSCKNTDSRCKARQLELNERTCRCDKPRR
Protocol: (§1) Samples were incubated with 1 μg/mL of VEGF (PeproTech) in 0.5% (v/v) PBS TWEEN®20 (PBST) for one hour with gentle agitation. The films were then washed three times for 10 minutes with 0.5% (v/v) PBST and then with PBS for a further 10 minutes. Next, the films were blocked for one hour with PBS containing 1% (w/v) bovine serum albumin (BSA) and subsequently washed as described above. Afterwards, the films were incubated with a primary antibody (2 μg/mL; rabbit polyclonal anti-human VEGF, PeproTech) in the blocking solution during one hour with agitation. […] Before image acquisition, the films were washed three times for 10 minutes with 1 mM PBST, rinsed three times with PBS and dried under a N2 stream. Fluorescence intensity was quantified using ImageJ.

hVEGF (PeproTech) [2] = biological target: T2, hVEGF (PeproTech); experiment: immunofluorescence against hVEGF on peptide-functionalized POLY-TAPE, 1 µg/mL hVEGF
Protocol: Fluorescence intensity was quantified using ImageJ. For cell experiments, the sterile PCL films were washed three times with PBS and incubated with 0.5 μg of VEGF in 0.5% (v/v) PBST for one hour with gentle agitation. Subsequently, the films were extensively washed with PBST (0.5%) and PBS to remove any traces of the washing buffer prior to cell seeding.
Incubation with hVEGF, immunofluorescence staining and fluorescence quantification was performed as mentioned above for the PCL films.
The POLY-TAPE® was oxygen plasma treated (OPT) for 5 minutes and incubated for one hour with 1 M NaOH in order to hydrolyze the esters and expose the carboxylic acids.

hVEGF (PeproTech) [3] = biological target: T2, hVEGF (PeproTech); experiment: immunofluorescence against hVEGF on peptide-functionalized Chondro-Gide, 1 µg/mL hVEGF
Protocol: as §1
(§2) Both Chondro-Gide and Collagen Meniscus Implant (CMI) were incubated with 50 mM of NHS/EDC for 2 hours. […] Incubation with hVEGF, immunofluorescence staining and fluorescence quantification was performed as mentioned above for the PCL films.

hVEGF (PeproTech) [4] = biological target: T2, hVEGF (PeproTech); experiment: immunofluorescence against hVEGF on peptide-functionalized Collagen Meniscus Implant, 1 µg/mL hVEGF
Protocol: as §1, §2

Chain of hBMP-2 (PeproTech) (P12643 283-396 limits assumed): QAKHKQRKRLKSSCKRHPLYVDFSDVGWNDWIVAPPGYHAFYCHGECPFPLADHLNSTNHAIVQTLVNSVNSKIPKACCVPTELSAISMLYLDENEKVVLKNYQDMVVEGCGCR
T1 sequence (P49001 280-393 limits assumed): as the sequence (P12643 283-396 limits assumed) above

B1: BMP-2-binding peptide KGYPVHPST (peptide)
peptide: Ac-KGYPVHPST
modifications: not fully specified (residue 1); also: lysine side chain covalently coupled to film or tape
notes: also called YPVHPST with an extra glycine and lysine at the N-termini
hBMP-2 (PeproTech)
  ALP produced by C2C12 after 7 days, fold over controls; functionalized films incubated with 5.0 µg hBMP-2: 12.7 fold
  ALP production by C2C12, ratio to hBMP-2 nonspecifically adsorbed on native films: 2.4 fold
  luciferase of BMP-2 reporter cell line (C2C12 Luc), fold increase; films incubated with 500 ng hBMP-2: 5.3 fold
  luciferase of BMP-2 reporter cell line (C2C12 Luc, ID1 promoter), normalized to films without hBMP-2; films incubated with 500 ng hBMP-2: 10.4 fold (normalized luciferase)
Endogenous BMP-2 (rat)
  binding result: binds

B2: TGFB1 binding peptide KGLPLGNSH (peptide)
peptide: Ac-KGLPLGNSH-NH2
modifications: not fully specified (residue 1); also: lysine side chain covalently coupled to PCL film
hTGFB1 (Peprotech)
  luciferase activity of TGFB1 reporter cell line (MLEC, PAI-1 promoter), fold over same films without hTGFB1 incubation: 9 fold

B3: scrambled peptide KGHNLGLPS (peptide)
peptide: Ac-KGHNLGLPS-NH2
modifications: not fully specified (residue 1); also: lysine side chain covalently coupled to PCL film
hTGFB1 (Peprotech)
  luciferase activity of TGFB1 reporter cell line (MLEC, PAI-1 promoter), fold over same films without hTGFB1 incubation: 3 fold

B4: VEGF-binding peptide KGSWWAPFH (peptide)
peptide: Ac-KGSWWAPFH
modifications: not fully specified (residue 1); also: lysine side chain covalently coupled to film or device
notes: also called SWWAPFH with an extra glycine and lysine at the N-termini
hVEGF (PeproTech) [1]
  fluorescence intensity, fold over non-functionalized films incubated with hVEGF: 7 fold
hVEGF (PeproTech) [2]
  fluorescence signal, fold over native POLY-TAPE with hVEGF: 2.3 fold
  fluorescence signal, fold over oxygen plasma treated POLY-TAPE with hVEGF: 1.5 fold
hVEGF (PeproTech) [3]
  fluorescence signal, fold over Chondro-Gide functionalized with NHS/EDC and incubated with hVEGF: 2.2 fold
hVEGF (PeproTech) [4]
  fluorescence signal, fold (reference taken as native CMI incubated with hVEGF): 3.3 fold
